{"source": "paper PMC12036799", "about": "(Metabolism: clinical and experimental, 2025)", "proteins": {"B1": {"name": "recombinant ALDOB WT (aldolase B) (enzyme, UniProt Q91Y97 1-364, looked up)", "chain": "MAHRFPALTPEQKKELSEIAQRIVANGKGILAADESVGTMGNRLQRIKVENTEENRRQFRELLFSVDNSISQSIGGVILFHETLYQKDSQGNLFRNVLKEKGIVVGIKLDQGGAPLAGTNKETTIQGLDGLSERCAQYKKDGVDFGKWRAVLRIADQCPSSLAIQENANALARYASICQQNGLVPIVEPEVLPDGDHDLEHCQYVSEKVLAAVYKALNDHHVYLEGTLLKPNMVTAGHACTKKYTPEQVAMATVTALHRTVPAAVPGICFLSGGMSEEDATLNLNAINRCPLPRPWKLSFSYGRALQASALAAWGGKAANKKATQEAFMKRAMANCQAAQGQYVHTGSSGAAATQSLFTASYTY"}}, "target": "the molecule itself", "assay": "dimer-tetramer equilibrium assay", "note": "“And” between values parts separate entries of the source, which are not always exact repeats. Equal values may be shown once."}
{"protein": "B1", "values": [{"measurement": "stoichiometry N", "value": "2 and 4"}]}
